To fix the notation:
T1: Human Notch4-NRR domain Fc fusion protein (human, UniProt Q99466 1046-1445, limits assumed)
T1 construct: Expressed in a CHO cell line, used from culture supernatant; 1 is named; also called Human Notch4-NRR Fusion Protein; not shown: Fc
T1 sequence: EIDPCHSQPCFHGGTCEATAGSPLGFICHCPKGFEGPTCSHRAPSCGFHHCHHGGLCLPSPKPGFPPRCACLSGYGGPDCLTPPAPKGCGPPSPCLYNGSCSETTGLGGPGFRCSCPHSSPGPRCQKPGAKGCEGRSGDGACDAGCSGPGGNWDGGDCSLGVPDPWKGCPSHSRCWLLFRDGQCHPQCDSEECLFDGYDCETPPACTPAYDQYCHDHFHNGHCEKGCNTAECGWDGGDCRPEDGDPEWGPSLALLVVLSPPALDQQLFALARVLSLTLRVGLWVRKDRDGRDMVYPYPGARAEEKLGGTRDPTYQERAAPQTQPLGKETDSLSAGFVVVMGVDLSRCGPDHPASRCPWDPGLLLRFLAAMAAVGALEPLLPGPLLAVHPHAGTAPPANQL

B1: HK2L4 (antibody, human IgG2, kappa)
heavy: EVQLVESGGGLVQPGGSLRLSCAASGFTFSSYGMSWVRQAPGKGLELVSTINSNGGRTYYPDSVKGRFTISRDNSKNTLYLQMGSLRAEDMAVYYCARDQGFAYWGQGTLVTVSSASTKGPSVFPLAPCSRSTSESTAALGCLVKDYFPEPVTVSWNSGALTSGVHTFPAVLQSSGLYSLSSVVTVPSSNFGTQTYTCNVDHKPSNTKVDKTVERKCCVECPPCPAPPAAAPSVFLFPPKPKDTLMISRTPEVTCVVVDVSHEDPEVQFNWYVDGVEVHNAKTKPREEQFNSTFRVVSVLTVVHQDWLNGKEYKCKVSNKGLPAPIEKTISKTKGQPREPQVYTLPPSREEMTKNQVSLTCLVKGFYPSDIAVEWESNGQPENNYKTTPPMLDSDGSFFLYSKLTVDKSRWQQGNVFSCSVMHEALHNHYTQKSLSLSPGK
light: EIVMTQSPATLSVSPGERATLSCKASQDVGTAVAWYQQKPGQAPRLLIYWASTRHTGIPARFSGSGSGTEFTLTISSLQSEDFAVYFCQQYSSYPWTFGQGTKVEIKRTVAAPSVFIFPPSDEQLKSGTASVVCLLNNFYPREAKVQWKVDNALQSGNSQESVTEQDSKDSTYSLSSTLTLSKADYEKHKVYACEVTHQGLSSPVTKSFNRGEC
notes: Humanized IgG2 (V234A, G237A)/κ; also called No. 14
B2: HA2L3 (antibody, human IgG2, kappa)
heavy: EVQLVESGGGLVQPGGSLRLSCAASGFTFSSYGMSWVRQAPGKGLELVSTINSNGGRTYYANSVKGRFTISRDNSKNTLYLQMGSLRAEDMAVYYCARDQGFAYWGQGTLVTVSSASTKGPSVFPLAPCSRSTSESTAALGCLVKDYFPEPVTVSWNSGALTSGVHTFPAVLQSSGLYSLSSVVTVPSSNFGTQTYTCNVDHKPSNTKVDKTVERKCCVECPPCPAPPAAAPSVFLFPPKPKDTLMISRTPEVTCVVVDVSHEDPEVQFNWYVDGVEVHNAKTKPREEQFNSTFRVVSVLTVVHQDWLNGKEYKCKVSNKGLPAPIEKTISKTKGQPREPQVYTLPPSREEMTKNQVSLTCLVKGFYPSDIAVEWESNGQPENNYKTTPPMLDSDGSFFLYSKLTVDKSRWQQGNVFSCSVMHEALHNHYTQKSLSLSPGK
light: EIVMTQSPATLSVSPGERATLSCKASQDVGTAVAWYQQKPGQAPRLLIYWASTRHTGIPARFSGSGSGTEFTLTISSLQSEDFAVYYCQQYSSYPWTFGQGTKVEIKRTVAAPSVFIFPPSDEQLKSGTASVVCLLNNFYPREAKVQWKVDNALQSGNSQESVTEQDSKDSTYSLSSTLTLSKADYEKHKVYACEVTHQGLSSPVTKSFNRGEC
notes: Humanized IgG2 (V234A, G237A)/κ; also called No. 28
B3: HK2L5 (antibody, human IgG2, kappa)
heavy: EVQLVESGGGLVQPGGSLRLSCAASGFTFSSYGMSWVRQAPGKGLELVSTINSNGGRTYYPDSVKGRFTISRDNSKNTLYLQMGSLRAEDMAVYYCARDQGFAYWGQGTLVTVSSASTKGPSVFPLAPCSRSTSESTAALGCLVKDYFPEPVTVSWNSGALTSGVHTFPAVLQSSGLYSLSSVVTVPSSNFGTQTYTCNVDHKPSNTKVDKTVERKCCVECPPCPAPPAAAPSVFLFPPKPKDTLMISRTPEVTCVVVDVSHEDPEVQFNWYVDGVEVHNAKTKPREEQFNSTFRVVSVLTVVHQDWLNGKEYKCKVSNKGLPAPIEKTISKTKGQPREPQVYTLPPSREEMTKNQVSLTCLVKGFYPSDIAVEWESNGQPENNYKTTPPMLDSDGSFFLYSKLTVDKSRWQQGNVFSCSVMHEALHNHYTQKSLSLSPGK
light: DIQMTQSPSSLSASVGDRVTITCKASQDVGTAVAWYQQKPGKSPKLLIYWASTRHTGVPSRFSGSGSGTDFTLTISSLQPEDVATYFCQQYSSYPWTFGQGTKVEIKRTVAAPSVFIFPPSDEQLKSGTASVVCLLNNFYPREAKVQWKVDNALQSGNSQESVTEQDSKDSTYSLSSTLTLSKADYEKHKVYACEVTHQGLSSPVTKSFNRGEC
notes: Humanized IgG2 (V234A, G237A)/κ; also called No. 15
B4: HK2L3 (antibody, human IgG2, kappa)
heavy: EVQLVESGGGLVQPGGSLRLSCAASGFTFSSYGMSWVRQAPGKGLELVSTINSNGGRTYYPDSVKGRFTISRDNSKNTLYLQMGSLRAEDMAVYYCARDQGFAYWGQGTLVTVSSASTKGPSVFPLAPCSRSTSESTAALGCLVKDYFPEPVTVSWNSGALTSGVHTFPAVLQSSGLYSLSSVVTVPSSNFGTQTYTCNVDHKPSNTKVDKTVERKCCVECPPCPAPPAAAPSVFLFPPKPKDTLMISRTPEVTCVVVDVSHEDPEVQFNWYVDGVEVHNAKTKPREEQFNSTFRVVSVLTVVHQDWLNGKEYKCKVSNKGLPAPIEKTISKTKGQPREPQVYTLPPSREEMTKNQVSLTCLVKGFYPSDIAVEWESNGQPENNYKTTPPMLDSDGSFFLYSKLTVDKSRWQQGNVFSCSVMHEALHNHYTQKSLSLSPGK
light: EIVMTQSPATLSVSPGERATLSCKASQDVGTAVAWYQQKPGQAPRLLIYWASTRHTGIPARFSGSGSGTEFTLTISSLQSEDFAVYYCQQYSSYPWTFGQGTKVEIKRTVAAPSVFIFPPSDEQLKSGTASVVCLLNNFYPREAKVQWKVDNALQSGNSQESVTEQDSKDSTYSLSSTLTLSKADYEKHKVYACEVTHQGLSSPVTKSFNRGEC
notes: Humanized IgG2 (V234A, G237A)/κ; also called No. 13
B5: HA2L4 (antibody, human IgG2, kappa)
heavy: EVQLVESGGGLVQPGGSLRLSCAASGFTFSSYGMSWVRQAPGKGLELVSTINSNGGRTYYANSVKGRFTISRDNSKNTLYLQMGSLRAEDMAVYYCARDQGFAYWGQGTLVTVSSASTKGPSVFPLAPCSRSTSESTAALGCLVKDYFPEPVTVSWNSGALTSGVHTFPAVLQSSGLYSLSSVVTVPSSNFGTQTYTCNVDHKPSNTKVDKTVERKCCVECPPCPAPPAAAPSVFLFPPKPKDTLMISRTPEVTCVVVDVSHEDPEVQFNWYVDGVEVHNAKTKPREEQFNSTFRVVSVLTVVHQDWLNGKEYKCKVSNKGLPAPIEKTISKTKGQPREPQVYTLPPSREEMTKNQVSLTCLVKGFYPSDIAVEWESNGQPENNYKTTPPMLDSDGSFFLYSKLTVDKSRWQQGNVFSCSVMHEALHNHYTQKSLSLSPGK
light: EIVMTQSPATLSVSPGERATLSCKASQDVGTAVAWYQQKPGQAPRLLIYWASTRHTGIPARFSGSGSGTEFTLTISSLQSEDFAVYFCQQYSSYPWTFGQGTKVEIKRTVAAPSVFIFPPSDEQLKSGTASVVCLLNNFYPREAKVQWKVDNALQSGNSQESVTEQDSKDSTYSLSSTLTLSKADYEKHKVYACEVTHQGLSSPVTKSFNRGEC
notes: Humanized IgG2 (V234A, G237A)/κ; also called No. 29
B6: HK3L5 (antibody, human IgG2, kappa)
heavy: EVQLVESGGGLVQPGGSLRLSCAASGFTFSSYGMSWVRQAPGKGLELVATINSNGGRTYYPDSVKGRFTISRDNSKNTLYLQMGSLKAEDMAVYYCARDQGFAYWGQGTLVTVSSASTKGPSVFPLAPCSRSTSESTAALGCLVKDYFPEPVTVSWNSGALTSGVHTFPAVLQSSGLYSLSSVVTVPSSNFGTQTYTCNVDHKPSNTKVDKTVERKCCVECPPCPAPPAAAPSVFLFPPKPKDTLMISRTPEVTCVVVDVSHEDPEVQFNWYVDGVEVHNAKTKPREEQFNSTFRVVSVLTVVHQDWLNGKEYKCKVSNKGLPAPIEKTISKTKGQPREPQVYTLPPSREEMTKNQVSLTCLVKGFYPSDIAVEWESNGQPENNYKTTPPMLDSDGSFFLYSKLTVDKSRWQQGNVFSCSVMHEALHNHYTQKSLSLSPGK
light: DIQMTQSPSSLSASVGDRVTITCKASQDVGTAVAWYQQKPGKSPKLLIYWASTRHTGVPSRFSGSGSGTDFTLTISSLQPEDVATYFCQQYSSYPWTFGQGTKVEIKRTVAAPSVFIFPPSDEQLKSGTASVVCLLNNFYPREAKVQWKVDNALQSGNSQESVTEQDSKDSTYSLSSTLTLSKADYEKHKVYACEVTHQGLSSPVTKSFNRGEC
notes: Humanized IgG2 (V234A, G237A)/κ; also called No. 20
B7: HA2L5 (antibody, human IgG2, kappa)
heavy: EVQLVESGGGLVQPGGSLRLSCAASGFTFSSYGMSWVRQAPGKGLELVSTINSNGGRTYYANSVKGRFTISRDNSKNTLYLQMGSLRAEDMAVYYCARDQGFAYWGQGTLVTVSSASTKGPSVFPLAPCSRSTSESTAALGCLVKDYFPEPVTVSWNSGALTSGVHTFPAVLQSSGLYSLSSVVTVPSSNFGTQTYTCNVDHKPSNTKVDKTVERKCCVECPPCPAPPAAAPSVFLFPPKPKDTLMISRTPEVTCVVVDVSHEDPEVQFNWYVDGVEVHNAKTKPREEQFNSTFRVVSVLTVVHQDWLNGKEYKCKVSNKGLPAPIEKTISKTKGQPREPQVYTLPPSREEMTKNQVSLTCLVKGFYPSDIAVEWESNGQPENNYKTTPPMLDSDGSFFLYSKLTVDKSRWQQGNVFSCSVMHEALHNHYTQKSLSLSPGK
light: DIQMTQSPSSLSASVGDRVTITCKASQDVGTAVAWYQQKPGKSPKLLIYWASTRHTGVPSRFSGSGSGTDFTLTISSLQPEDVATYFCQQYSSYPWTFGQGTKVEIKRTVAAPSVFIFPPSDEQLKSGTASVVCLLNNFYPREAKVQWKVDNALQSGNSQESVTEQDSKDSTYSLSSTLTLSKADYEKHKVYACEVTHQGLSSPVTKSFNRGEC
notes: Humanized IgG2 (V234A, G237A)/κ; also called No. 30
B8: HK3L4 (antibody, human IgG2, kappa)
heavy: EVQLVESGGGLVQPGGSLRLSCAASGFTFSSYGMSWVRQAPGKGLELVATINSNGGRTYYPDSVKGRFTISRDNSKNTLYLQMGSLKAEDMAVYYCARDQGFAYWGQGTLVTVSSASTKGPSVFPLAPCSRSTSESTAALGCLVKDYFPEPVTVSWNSGALTSGVHTFPAVLQSSGLYSLSSVVTVPSSNFGTQTYTCNVDHKPSNTKVDKTVERKCCVECPPCPAPPAAAPSVFLFPPKPKDTLMISRTPEVTCVVVDVSHEDPEVQFNWYVDGVEVHNAKTKPREEQFNSTFRVVSVLTVVHQDWLNGKEYKCKVSNKGLPAPIEKTISKTKGQPREPQVYTLPPSREEMTKNQVSLTCLVKGFYPSDIAVEWESNGQPENNYKTTPPMLDSDGSFFLYSKLTVDKSRWQQGNVFSCSVMHEALHNHYTQKSLSLSPGK
light: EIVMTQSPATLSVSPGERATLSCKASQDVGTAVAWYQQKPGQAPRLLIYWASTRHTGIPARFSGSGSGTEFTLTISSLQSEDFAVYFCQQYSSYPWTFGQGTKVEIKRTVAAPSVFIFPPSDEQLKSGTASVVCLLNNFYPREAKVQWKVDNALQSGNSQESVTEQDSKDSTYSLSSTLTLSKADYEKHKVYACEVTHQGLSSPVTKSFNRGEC
notes: Humanized IgG2 (V234A, G237A)/κ; also called No. 19
B9: HK3L3 (antibody, human IgG2, kappa)
heavy: EVQLVESGGGLVQPGGSLRLSCAASGFTFSSYGMSWVRQAPGKGLELVATINSNGGRTYYPDSVKGRFTISRDNSKNTLYLQMGSLKAEDMAVYYCARDQGFAYWGQGTLVTVSSASTKGPSVFPLAPCSRSTSESTAALGCLVKDYFPEPVTVSWNSGALTSGVHTFPAVLQSSGLYSLSSVVTVPSSNFGTQTYTCNVDHKPSNTKVDKTVERKCCVECPPCPAPPAAAPSVFLFPPKPKDTLMISRTPEVTCVVVDVSHEDPEVQFNWYVDGVEVHNAKTKPREEQFNSTFRVVSVLTVVHQDWLNGKEYKCKVSNKGLPAPIEKTISKTKGQPREPQVYTLPPSREEMTKNQVSLTCLVKGFYPSDIAVEWESNGQPENNYKTTPPMLDSDGSFFLYSKLTVDKSRWQQGNVFSCSVMHEALHNHYTQKSLSLSPGK
light: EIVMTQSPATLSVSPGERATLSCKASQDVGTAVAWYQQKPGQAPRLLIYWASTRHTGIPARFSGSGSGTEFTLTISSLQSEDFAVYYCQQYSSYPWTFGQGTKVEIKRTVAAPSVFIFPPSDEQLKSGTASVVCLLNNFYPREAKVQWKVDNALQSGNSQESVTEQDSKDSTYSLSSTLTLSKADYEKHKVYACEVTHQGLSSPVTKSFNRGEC
notes: Humanized IgG2 (V234A, G237A)/κ; also called No. 18

The assay addresses T1, Human Notch4-NRR domain Fc fusion …. Briefly: SPR (Biacore) as for Table 30; Notch4-NRR-Fc captured, antibody injected; averaged, N=6. As for the experimental part:
Kinetic analysis of further anti-Notch4 inhibitory humanized antibodies was carried out as follows. Human Notch4-NRR domain Fc fusion proteins were expressed with a CHO cell line. The antigen in the culture supernatant was captured by the anti-human Notch4 antibody fixed on a CM5 sensor chip that recognizes different epitopes of human Notch4. The humanized anti-human Notch4 antibody was then injected onto the sensor chip at various concentrations. The interaction and disassociation constants thereof were calculated according to manufacturer's instructions.
Background: Surface plasmon resonance follows binding to a sensor surface in real time, without labels.
Usually Kd stands for the constant that tells how readily two partners part at equilibrium. As usually defined, the koff is the rate constant with which the complex falls apart. The term kon denotes a measure of how fast the partners come together. In turn, B1 yielded a Kd of 0.634 nM, an off-rate (koff) of 0.00117 s⁻¹ and a kon of 1.89e+06 M⁻¹ s⁻¹.

The molecule B2 returned a Kd of 0.727 nM, a koff of 0.00137 s⁻¹ and a kon of 1.95e+06 M⁻¹ s⁻¹.

In the case of B3, the Kd stood at 0.549 nM, the koff worked out at 0.00112 s⁻¹ and the kon was determined as 2.07e+06 M⁻¹ s⁻¹.

B4 returned a dissociation constant (Kd) of 0.682 nM, a koff of 0.00109 s⁻¹ and a kon of 1.62e+06 M⁻¹ s⁻¹.

The molecule B5 displayed a Kd of 0.738 nM, an off-rate (koff) of 0.00169 s⁻¹ and an on-rate (kon) of 2.33e+06 M⁻¹ s⁻¹.

On to B6, for which the affinity, expressed as Kd, was 0.601 nM; the off-rate constant (koff) was 0.00102 s⁻¹; the kon was 1.72e+06 M⁻¹ s⁻¹.

B7 showed a Kd of 0.612 nM, a koff of 0.00136 s⁻¹ and a kon of 2.49e+06 M⁻¹ s⁻¹.

Take B8: binding was characterised by a dissociation constant (Kd) of 0.755 nM, the koff is 0.0012 s⁻¹ and the kon came to 1.61e+06 M⁻¹ s⁻¹.

Molecule B9 yielded a dissociation constant Kd of 0.897 nM, an off-rate (koff) of 0.00104 s⁻¹ and an association rate constant (kon) of 1.22e+06 M⁻¹ s⁻¹.

The values are drawn from US20170096493A1 (EISAI R AND D MANAGEMENT, published 2017).
